Results published in article PMC12394075, “Domain coupling in activation of a family C GPCR” (Nature Chemical Biology, 2024).

Target: the molecule itself
Assay: SEC; Superose 6 10/300 increase GL equilibrated in detergent-free buffer, after elution in 0.005% MNG/GDN/CHS

B1: full-length mGluR2 (FLAG-tagged, purified in detergent micelles) (receptor, rat, UniProt P31421 19-872, looked up)
chain: EGPAKKVLTLEGDLVLGGLFPVHQKGGPAEECGPVNEHRGIQRLEAMLFALDRINRDPHLLPGVRLGAHILDSCSKDTHALEQALDFVRASLSRGADGSRHICPDGSYATHSDAPTAVTGVIGGSYSDVSIQVANLLRLFQIPQISYASTSAKLSDKSRYDYFARTVPPDFFQAKAMAEILRFFNWTYVSTVASEGDYGETGIEAFELEARARNICVATSEKVGRAMSRAAFEGVVRALLQKPSARVAVLFTRSEDARELLAATQRLNASFTWVASDGWGALESVVAGSERAAEGAITIELASYPISDFASYFQSLDPWNNSRNPWFREFWEERFHCSFRQRDCAAHSLRAVPFEQESKIMFVVNAVYAMAHALHNMHRALCPNTTHLCDAMRPVNGRRLYKDFVLNVKFDAPFRPADTDDEVRFDRFGDGIGRYNIFTYLRAGSGRYRYQKVGYWAEGLTLDTSFIPWASPSAGPLPASRCSEPCLQNEVKSVQPGEVCCWLCIPCQPYEYRLDEFTCADCGLGYWPNASLTGCFELPQEYIRWGDAWAVGPVTIACLGALATLFVLGVFVRHNATPVVKASGRELCYILLGGVFLCYCMTFVFIAKPSTAVCTLRRLGLGTAFSVCYSALLTKTNRIARIFGGAREGAQRPRFISPASQVAICLALISGQLLIVAAWLVVEAPGTGKETAPERREVVTLRCNHRDASMLGSLAYNVLLIALCTLYAFKTRKCPENFNEAKFIGFTMYTTCIIWLAFLPIFYVTSSDYRVQTTTMCVSVSLSGSVVLGCLFAPKLHIILFQPQKNVVSHRAPTSRFGSAAPRASANLGQGSGSQFVPTVCNGREVVDSTTSSL
notes: also called full-length mGluR2 construct; full-length receptor
Q: Does B1 bind?
A: Result: binds
